Experimental data published in patent US6632633B1, “Process for oxidation of steroids and genetically engineered cells used therein” (Aventis Pharma, S.A., priority 1988, dated 2003).

Tested on: progesterone
Experiment: In vivo activity of bovine P45017α in whole cells of transformed Kluyveromyces lactis (3H-labelled steroid, RP-HPLC)
Type: cell-based
Settings: expressed in K. lactis under the lactase promoter
Protocol: Transformation of K. lactis strain CBS 2360 was performed with pGB 17α-5 as described in Example 14 and in vivo activity was determined in the whole cells of the transformed K. lactis strain. Four independent transformants (17α-3,17α-7,17α-10 and 17α-11) were grown in rich medium (10 g of yeast extracts, 10 g of bactopeptone and 20 g of glucose/liter) for 72 hours to reach an A600 of at least 30. The cells were harvested and resuspended at 1×10^6 cells/ml (A600 =1).
Five ml of culture were incubated in the presence of ^3H-labelled progesterone (20 μM) for 24 hours at 28° C. and then were extracted with dichloromethane. […] The amount of 17α-hydroxyprogesterone was about 40% (about 23% to 58% depending on the transformant) of the substract added (see FIG. 57 corresponding to 17α-3). No androstenedione, which was the product of the C17-20-lyase activity of P45017α, was detected.
^3H-labelled 17α-hydroxyprogesterone was also incubated with the transformants under the conditions described above and after 24 hours of incubation, no androstenedione was detected.

B1: bovine P45017α: bovine cytochrome P450 steroid 17α-hydroxylase expressed in K. lactis under the lactase promoter (protein, UniProt P05185 1-509, looked up)
Steroid …: MWLLLAVFLLTLAYLFWPKTKHSGAKYPRSLPSLPLVGSLPFLPRRGQQHKNFFKLQEKYGPIYSFRLGSKTTVMIGHHQLAREVLLKKGKEFSGRPKVATLDILSDNQKGIAFADHGAHWQLHRKLALNAFALFKDGNLKLEKIINQEANVLCDFLATQHGEAIDLSEPLSLAVTNIISFICFNFSFKNEDPALKAIQNVNDGILEVLSKEVLLDIFPVLKIFPSKAMEKMKGCVQTRNELLNEILEKCQENFSSDSITNLLHILIQAKVNADNNNAGPDQDSKLLSNRHMLATIGDIFGAGVETTTSVIKWIVAYLLHHPSLKKRIQDDIDQIIGFNRTPTISDRNRLVLLEATIREVLRIRPVAPTLIPHKAVIDSSIGDLTIDKGTDVVVNLWALHHSEKEWQHPDLFMPERFLDPTGTQLISPSLSYLPFGAGPRSCVGEMLARQELFLFMSRLLQRFNLEIPDDGKLPSLEGHASLVLQIKPFKVKIEVRQAWKEAQAEGSTP
**Q.** For B1, which C17-20 lyase activity is on record?
**A.** does not show any activity C17-20 lyase
